In patent publication US20240400701A1 (LANOVA MEDICINES DEVELOPMENT, published 2024):
Changes are numbered by the printed parent chain. In names and notes the source's numbering stands.

T1: human AMHRII (anti-Mullerian hormone receptor type 2) (human, UniProt Q16671 18-573)
T1 construct: whole, on cells; also called AMHR2; human AMHR2
T1 sequence (looked up): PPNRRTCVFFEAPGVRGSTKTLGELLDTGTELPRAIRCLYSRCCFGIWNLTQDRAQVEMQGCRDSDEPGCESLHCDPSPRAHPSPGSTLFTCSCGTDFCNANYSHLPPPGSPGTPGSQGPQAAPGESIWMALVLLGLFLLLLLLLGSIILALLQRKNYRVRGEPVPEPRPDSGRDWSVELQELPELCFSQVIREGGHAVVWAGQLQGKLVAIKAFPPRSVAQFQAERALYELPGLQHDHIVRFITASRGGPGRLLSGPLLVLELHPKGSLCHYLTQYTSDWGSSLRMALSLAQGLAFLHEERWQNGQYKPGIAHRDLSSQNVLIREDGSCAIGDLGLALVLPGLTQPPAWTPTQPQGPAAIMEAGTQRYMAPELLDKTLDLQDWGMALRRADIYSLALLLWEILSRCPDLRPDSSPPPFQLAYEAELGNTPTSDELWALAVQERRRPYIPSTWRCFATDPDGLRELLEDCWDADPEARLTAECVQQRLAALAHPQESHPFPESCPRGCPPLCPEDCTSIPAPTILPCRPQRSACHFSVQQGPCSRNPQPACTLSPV

B1: 31D9B3 VH1.2-VL2.1 hIgG1 (antibody, V domains shown)
VH: QVQLVQSGAEVKKPGASVKVSCKASGYTFTDYWVSWVRQAPGQGLEWMGEIYPKNDVSNFNEKFKGRVTMTTDTSTSTAYMELRSLRSDDTAVYYCARQRDYWGQGTLVTVSS
VL: DVVMTQSPLSLPVTLGQPASISCRSSQSLEYGSGYTYLEWYLQRPGQSPRLLIYGVSNRFSGVPDRFSGSGSGTDFTLKISRVEAEDVGVYYCFQATHDPNTFGQGTKLEIK
notes: Humanized, PTM de-risked, human IgG1; also called 31D9B3 VH1.2-VL2.1 hlgG1
B2: 31D9B3 VH1.3-VL2.1 hIgG1 (antibody, V domains shown)
VH: B1 VH with D56Q
VL: B1 VL
notes: Humanized, PTM de-risked, human IgG1; also called 31D9B3 VH1.3-VL2.1 hlgG1
B3: 31D9B3 VH1.3-VL2.3 hIgG1 (antibody, V domains shown)
VH: B1 VH with D56Q
VL: B1 VL with S33T
notes: Humanized, PTM de-risked, human IgG1; also called 31D9B3 VH1.3-VL2.3 hlgG1
B4: 31D9B3 VH1.3-VL2 hIgG1 (antibody, V domains shown)
VH: B1 VH with D56Q
VL: B1 VL with S33D
notes: Humanized, PTM de-risked (VH G55Q), human IgG1; also called 31D9B3 VH1.3-VL2 hlgG1
B5: 31D9B3 VH1.2-VL2 hIgG1 (antibody, V domains shown)
VH: B1 VH
VL: B1 VL with S33D
notes: Humanized, PTM de-risked (VH G55D), human IgG1; also called 31D9B3 VH1.2-VL2 hlgG1
B6: 31D9B3 VH1.2-VL2.3 hIgG1 (antibody, V domains shown)
VH: B1 VH
VL: B1 VL with S33T
notes: Humanized, PTM de-risked, human IgG1; also called 31D9B3 VH1.2-VL2.3 hlgG1
B7: 31D9B3 VH1.2-VL2.2 hIgG1 (antibody, V domains shown)
VH: B1 VH
VL: B1 VL with S33D, G34R
notes: Humanized, PTM de-risked, human IgG1; also called 31D9B3 VH1.2-VL2.2 hlgG1
B8: 94C4C3 H3L1 hIgG1 (antibody, V domains shown)
VH: QVQLQESGPGLVKPSETLSLTCTVSGYSITSDYAWNWIRQFPGKGLEWMGYISYSGSISYNPSLKSRITISRDTSKNQFFLKLSSVTAADTAVYYCARSRYSWFDYWGQGTLVTVSS
VL: EIVLTQSPGTLSLSPGERATLSCSASESVDTYGNSFMHWYQQKPGQAPRLLIYRASSLESGIPDRFSGSGSGTDFTLTISRLEPEDFAVYYCQQSNEDPYTFGGGTKVEIK
notes: Humanized, human IgG1; also called 94C4C3 H3L1 hlgG1
B9: 94C4C3 H3L2 hIgG1 (antibody, V domains shown)
VH: B8 VH
VL: B8 VL with A47P, D64V, G72R
notes: Humanized, human IgG1; also called 94C4C3 H3L2 hlgG1
B10: 94C4C3 H4L4 hIgG1 (antibody, V domains shown)
VH: B8 VH with S25T, G45K, K82Q
VL: B8 VL with E1D, L13V, A47P, R49K, D64V, G72R, L82V, P84A, V108L
notes: Humanized, human IgG1; also called 94C4C3 H4L4 hlgG1
B11: 94C4C3 H4L3 hIgG1 (antibody, V domains shown)
VH: B8 VH with S25T, G45K, K82Q
VL: B8 VL with A47P, D64V, G72R, L82V, P84A, V108L
notes: Humanized, human IgG1; also called 94C4C3 H4L3 hlgG1
B12: 94C4C3 H3L4 hIgG1 (antibody, V domains shown)
VH: B8 VH
VL: B8 VL with E1D, L13V, A47P, R49K, D64V, G72R, L82V, P84A, V108L
notes: Humanized, human IgG1; also called 94C4C3 H3L4 hlgG1
B13: 94C4C3 H4L1 hIgG1 (antibody, V domains shown)
VH: B8 VH with S25T, G45K, K82Q
VL: B8 VL
notes: Humanized, human IgG1; also called 94C4C3 H4L1 hlgG1
B14: 94C4C3 H4L2 hIgG1 (antibody, V domains shown)
VH: B8 VH with S25T, G45K, K82Q
VL: B8 VL with A47P, D64V, G72R
notes: Humanized, human IgG1; also called 94C4C3 H4L2 hlgG1
B15: 94C4C3 H3L3 hIgG1 (antibody, V domains shown)
VH: B8 VH
VL: B8 VL with A47P, D64V, G72R, L82V, P84A, V108L
notes: Humanized, human IgG1; also called 94C4C3 H3L3 hlgG1

Each binder was assayed against T1, human AMHRII (anti-Mullerian hormone …) (assay: FACS on CHO-K1 cells over-expressing human AMHR2).
Procedure: (§1) CHO-K1 cells over-expressed AMHR2 were harvested from flasks. 100 μl of 1×10⁶ cells/ml of cells were incubated with the humanized antibodies in 3-fold serial dilutions starting from 300 nM to 0.001 nM for 30 minutes on ice. After being washed with 200 μl of FACS buffer twice, cells were incubated with secondary antibody for 30 minutes on ice. Cells were washed with 200 μl of FACS buffer twice and analyzed by FACS.

Row | Binder | EC50 | Top (MFI)
1 | B1 | 5.68 nM | 10600 MFI
2 | B2 | 1.2 nM | 10900 MFI
3 | B3 | 0.38 nM | 12700 MFI
4 | B4 | 1.18 nM | 28000 MFI
5 | B5 | 1.51 nM | 26800 MFI
6 | B6 | 0.617 nM | 12900 MFI
7 | B7 | 0.856 nM | 22000 MFI

Biological target: T1, human AMHRII (anti-Mullerian hormone …)
Assay: FACS on CHO-K1 cells over-expressing human AMHR2
Remark: another data set of the same source
Procedure: as §1

Row | Binder | EC50 | Top (MFI)
8 | B8 | 1.32 nM | 51000 MFI
9 | B9 | 1.23 nM | 47700 MFI
10 | B10 | 1.09 nM | 57900 MFI
11 | B11 | 1.16 nM | 51100 MFI
12 | B12 | 1.35 nM | 48100 MFI
13 | B13 | 1.12 nM | 49500 MFI
14 | B14 | 1.02 nM | 48700 MFI
15 | B15 | 1.03 nM | 46300 MFI

What follows are binders tested against T1, human AMHRII (anti-Mullerian hormone …) (assay: FACS on Rko cells over-expressing human AMHR2).
Procedure: as §1, with “Rko” for “CHO-K1”, “over-expressing” for “over-expressed”, “primary PTM” for “the humanized”

Row | Binder | EC50 | Top (MFI)
16 | B4 | 0.976 nM | 17900 MFI
17 | B5 | 1.35 nM | 18200 MFI
18 | B7 | 0.878 nM | 16300 MFI
